In assay [1] the target is T1, human IL-2Rγ expressed on cells (human, UniProt P31785 23-369).
T1 construct: whole, on cells; on cells it stands together with the cytokine-specific receptor subunits; also called IL-2Rgamma; CD132
T1 sequence (looked up): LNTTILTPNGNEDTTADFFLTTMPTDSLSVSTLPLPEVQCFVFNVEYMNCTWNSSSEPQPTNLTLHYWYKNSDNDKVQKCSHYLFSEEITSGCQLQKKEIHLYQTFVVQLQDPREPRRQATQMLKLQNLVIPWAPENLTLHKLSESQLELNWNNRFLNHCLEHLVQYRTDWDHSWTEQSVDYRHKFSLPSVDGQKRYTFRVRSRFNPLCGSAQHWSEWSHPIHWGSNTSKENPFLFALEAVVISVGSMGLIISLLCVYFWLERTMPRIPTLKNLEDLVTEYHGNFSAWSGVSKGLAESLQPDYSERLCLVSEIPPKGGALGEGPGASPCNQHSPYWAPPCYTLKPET
Nature of the assay: flow cytometry on NK-92 cells, antibody at 10 µg/ml, MFI of sample over MFI of unstained; lower end, tied to H4H13538P by Table 9-2. Here is the method: (§1) For flow cytometry analyses, the cells were pre-incubated with mouse IgG at 100 μg/ml for 15 minutes at room temperature (RT) to block the binding of the antibodies to Fc receptors. […] Cells were washed, fixed using BD CytoFix™ (BD biosciences, #554655) and analyzed on an IQue® (Intellicyt®) Flow Cytometer or Accuri Flow cytometer (BD). […] The results were analyzed using ForeCyt® (IntelliCyt®) software to determine the geometric means of fluorescence (MFI) for viable cells. Binding ratios were calculated by normalizing the MFI of the test sample by the MFI of the unstained sample.
Background: In flow cytometry, cells or beads pass a laser one at a time.

Assay [2] deals with T1, human IL-2Rγ expressed on cells. In words: flow cytometry on Jurkat cells, antibody at 10 µg/ml, MFI of sample over MFI of unstained; upper end, tied to H4H12889P by Table 9-1. On the procedure:
as §1

Assay [3] has the same target. Nature of the assay: flow cytometry on NK-92 cells, antibody at 10 µg/ml, MFI of sample over MFI of unstained; upper end, tied to H4H12889P by Table 9-1. Here is the method:
as §1

The target is the same in assay [4]. In words: flow cytometry on NK-92 cells, antibody at 10 µg/ml, MFI of sample over MFI of unstained; upper end, tied by Table 9-2 to the row printed H4H13841P.
For assay [5], the target named is T2, Human IL2Rγ extracellular domain expressed with a C-terminal mouse IgG2a Fc tag (human).
T2 construct: whole entry is the Fc-fused construct; also called hIL-2Rg-mFc
T2 chain: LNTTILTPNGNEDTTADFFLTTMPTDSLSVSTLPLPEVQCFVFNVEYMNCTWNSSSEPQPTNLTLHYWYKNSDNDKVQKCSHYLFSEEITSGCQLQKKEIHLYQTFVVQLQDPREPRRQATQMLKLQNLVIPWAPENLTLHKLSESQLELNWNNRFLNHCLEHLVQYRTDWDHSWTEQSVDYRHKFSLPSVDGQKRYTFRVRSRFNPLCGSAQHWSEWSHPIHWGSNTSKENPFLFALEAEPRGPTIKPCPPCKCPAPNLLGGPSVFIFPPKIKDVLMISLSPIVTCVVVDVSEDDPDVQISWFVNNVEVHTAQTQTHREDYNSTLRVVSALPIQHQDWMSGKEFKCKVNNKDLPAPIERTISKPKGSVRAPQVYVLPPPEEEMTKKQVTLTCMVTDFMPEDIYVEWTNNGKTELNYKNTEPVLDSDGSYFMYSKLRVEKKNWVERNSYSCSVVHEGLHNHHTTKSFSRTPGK
Nature of the assay: SPR Biacore 4000, anti-hFc-captured mAb, 37 C; no dissociation observed, kd manually fixed at 1.00E-05.

For assay [6], the target named is T3, Mouse IL2Rγ extracellular domain expressed with a C-terminal myc-myc-hexahistidine tag (mouse).
T3 construct: whole entry is the tagged construct; also called mIL-2Rg-MMH
T3 chain: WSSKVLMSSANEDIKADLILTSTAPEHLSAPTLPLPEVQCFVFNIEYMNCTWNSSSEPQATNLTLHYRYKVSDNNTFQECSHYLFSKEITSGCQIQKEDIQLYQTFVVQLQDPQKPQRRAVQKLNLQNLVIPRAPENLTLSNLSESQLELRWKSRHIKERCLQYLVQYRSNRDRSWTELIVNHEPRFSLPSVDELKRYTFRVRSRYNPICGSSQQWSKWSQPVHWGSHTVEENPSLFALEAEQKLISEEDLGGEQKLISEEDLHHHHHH
Nature of the assay: SPR Biacore 4000, anti-hFc-captured mAb, 37 C. The essentials: (§2)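 KD and dissociative half-life come from rate constants obtained by 1:1 binding-model fits of real-time sensorgrams. Antibodies sit on an anti-human Fc capture surface, with HBS-ET (pH 7.4) as running buffer and an 8-10 minute dissociation phase.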
In general terms: Surface plasmon resonance follows binding to a sensor surface in real time, without labels.

The target of assay [7] is T4, Macaca fascicularis IL2Rγ extracellular domain expressed with a C-terminal myc-myc-hexahistidine tag (Macaca fascicularis).
T4 construct: whole entry is the tagged construct; also called mfIL-2Rg-MMH
T4 chain: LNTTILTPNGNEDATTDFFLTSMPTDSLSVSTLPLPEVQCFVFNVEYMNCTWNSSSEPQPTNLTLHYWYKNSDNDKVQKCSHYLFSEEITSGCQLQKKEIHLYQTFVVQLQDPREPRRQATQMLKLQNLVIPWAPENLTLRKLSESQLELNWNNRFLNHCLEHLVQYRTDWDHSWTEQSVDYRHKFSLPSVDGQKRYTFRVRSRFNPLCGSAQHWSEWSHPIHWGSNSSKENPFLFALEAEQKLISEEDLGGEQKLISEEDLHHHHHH
Nature of the assay: SPR Biacore 4000, anti-hFc-captured mAb, 37 C. In short, it runs like this:
as §2

The target in assay [8] is T2, Human IL2Rγ extracellular domain …. Nature of the assay: SPR Biacore 4000, anti-hFc-captured mAb, 37 C. The essentials: as §2
Assay [9] has as its target T5, Rat IL2Rγ extracellular domain expressed with a C-terminal myc-myc-hexahistidine tag (rat).
T5 construct: whole entry is the tagged construct; also called rIL-2Rg-MMH; rat IL-2Rg-MMH
T5 chain: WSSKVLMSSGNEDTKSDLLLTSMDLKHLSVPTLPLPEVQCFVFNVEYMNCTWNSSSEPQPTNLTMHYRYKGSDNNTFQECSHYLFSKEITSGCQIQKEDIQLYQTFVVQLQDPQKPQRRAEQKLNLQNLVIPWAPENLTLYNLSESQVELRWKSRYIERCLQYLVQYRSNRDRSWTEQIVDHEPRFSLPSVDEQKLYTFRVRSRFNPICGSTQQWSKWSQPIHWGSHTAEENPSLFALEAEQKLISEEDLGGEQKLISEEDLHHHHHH
In words: SPR Biacore 4000, anti-hFc-captured mAb, 37 C. In short, it runs like this:
as §2

For assay [10], the target named is T2, Human IL2Rγ extracellular domain …. In words: SPR Biacore 4000, anti-hFc-captured mAb, 37 C; computed with kd fixed at 1.00E-05. On the procedure:
(§3) Equilibrium dissociation constants (KD values) for IL-2Rγ binding to purified anti-IL2Rγ monoclonal antibodies were determined using a Biacore 4000 instrument equipped with a real-time surface plasmon resonance biosensor. All binding studies were performed in 10 mM HEPES, 150 mM NaCl, 3 mM EDTA, and 0.05% v/v Surfactant Tween-20, pH 7.4 (HBS-ET) running buffer at 25° C. and 37° C. The Biacore sensor surface was first derivatized by amine coupling with a monoclonal mouse anti-human Fc antibody (GE, # BR-1008-39) to capture anti-IL2Rγ monoclonal antibodies.
(§4) The dissociation of monoclonal antibody bound IL2Rγ reagents were monitored for 8-10 minutes in HBS-ET running buffer. Kinetic association (kₐ) and dissociation (kd) rate constants were determined by fitting the real-time sensorgrams to a 1:1 binding model using Scrubber 2.0c curve fitting software. Binding dissociation equilibrium constants (KD) and dissociative half-lives (t_{1/2}) were calculated from the kinetic rate constants as: […]

Assay [11] has the same target. In words: SPR Biacore 4000, anti-hFc-captured mAb, 25 C; no dissociation observed, kd manually fixed at 1.00E-05.
The target of assay [12] is T3, Mouse IL2Rγ extracellular domain …. Nature of the assay: SPR Biacore 4000, anti-hFc-captured mAb, 25 C. The essentials: as §2
For assay [13], the target named is T2, Human IL2Rγ extracellular domain …. Nature of the assay: SPR Biacore 4000, anti-hFc-captured mAb, 25 C. The essentials: as §2
Assay [14] has as its target T5, Rat IL2Rγ extracellular domain …. Nature of the assay: SPR Biacore 4000, anti-hFc-captured mAb, 25 C. In short, it runs like this:
as §2

In assay [15] the target is T2, Human IL2Rγ extracellular domain …. In words: SPR Biacore 4000, anti-hFc-captured mAb, 25 C; computed with kd fixed at 1.00E-05. Here is the method: as §3, §4
Assay [16] deals with T1, human IL-2Rγ expressed on cells. In words: flow cytometry on NK-92 cells, antibody at 10 µg/ml, MFI of sample over MFI of unstained; lower end, tied to H4H12859P by Table 9-1. Here is the method: as §1

B1: H4H13538P (antibody, human IgG4 S228P, kappa, V domains shown)
VH: EVQLVESGGGLVQPGGSLGLSCAASGFTFSNYAMSWVRQAPGKGLEWVSAVSGGGGGTYYADSVKGRFTISRDNSKNTVLLQMNSLRAEDTAVYYCARGRTGGLDYWGPGTLVTVSS
VL: DVVMTQSPLSLPVIFGQPASISCRSSQSLVDSDGNTYLNWLQQRPGQSPRRLIYEVSNRDSGVPDRFSGSGSGTDFTLTISRVEAEDVGIYYCMQGTRWPPTFGGGTKVEIKR
notes: fully human anti-IL2Rγ antibody, human IgG4
With B1, in assay [1], the binding ratio stood at 1.

B2: H4H12889P (antibody, human IgG4 S228P, kappa, V domains shown)
VH: EVQLVESGGGLVQPGGSLRLSCAASGFIFSSYEMHWVRQAPGKGLEWISYISSSGTTIYYADSVKGRFTISRDNAKNSLYLHMNSLRAEDTAVYYCTRARITGTFDVFDIWGQGTMVTVSS
VL: DIQMTQSPSSLSASVGDRVTITCRASQSISSYLNWYQQKPGKAPKLLIFAASNLQSGVPSRFSGSRSGTDFTLTISSLQPEDFATYYCQQNYNIPYTFGQGTKLEIKR
notes: fully human anti-IL2Rγ antibody, human IgG4; also called REGN7257
B2: the binding ratio is 19 in assay [2] and 94 in [3].

B3: H4H13541P (antibody, human IgG4 S228P, kappa, V domains shown)
VH: EVQLVESGGGVVRPGGSLRLSCAASGFIFDDYDMSWVRQPPGRGLEWVSGIDWFGGTRGYADSMKGRFTISRDNAKNSLYLQMNSLRVEDTAFYYCARGGAIVGAVTPFDYWGQGTLVTVSS
VL: DIQMTQSPSSLSASVGNRVTLSCRASQSINTYLSWYQQRPGKAPKLLIYAASSLQSGVPSRFSGSGAGTDFTLTISSLQPEDFATYYCQQSYSAPLTFGGGTKVEIKR
notes: as for B1
B3: the binding ratio in [4] came to 37.

B4: H4H12908P (antibody, human IgG4 S228P, kappa, V domains shown)
VH: EVQLVESGGRLVQPGGSLRLSCEASGFTFSNYGMTWVRQAPGKGLEWVSVISGSDNRKYYAESVKGRFTISRDNSKNTLYLQMNSLRAEDTAVYYCAKLGYSRSSKDFYYGMDVWGQGTTVTVSS
VL: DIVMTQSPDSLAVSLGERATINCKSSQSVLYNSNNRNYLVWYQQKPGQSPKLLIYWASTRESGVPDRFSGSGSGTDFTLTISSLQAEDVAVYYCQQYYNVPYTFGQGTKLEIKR
notes: fully human anti-IL2Rgamma mAb, human IgG4 Fc
With B4, the dissociation rate constant (koff) in assay [5] was ≤ 1e-05 s⁻¹; in [6], 0.0293 s⁻¹; in assay [7], 0.00148 s⁻¹; in [9], 0.00835 s⁻¹; in assay [11], ≤ 1e-05 s⁻¹; in [12], 0.00367 s⁻¹. Also, the koff in assay [14] is 0.00237 s⁻¹. Moreover, the “100 nM Ag Bound” value amounted to 6 RU in assay [6]; 13 RU in assay [7]; 8 RU in assay [9]; 25 RU in assay [12]; 19 RU in assay [14]. For the same molecule, the Kd in assay [6] is 387 nM; in assay [7], 39.8 nM; in [9] it was 215 nM; in assay [10], ≤ 0.518 nM; in assay [12], 108 nM; in assay [14], 79.3 nM. Further, the Kd in assay [15] was ≤ 0.131 nM. In addition, the kon was 75700 M⁻¹ s⁻¹ in assay [6]; 37100 M⁻¹ s⁻¹ in [7]; 19300 M⁻¹ s⁻¹ in assay [8]; 38900 M⁻¹ s⁻¹ in [9]; 34100 M⁻¹ s⁻¹ in assay [12]; 76200 M⁻¹ s⁻¹ in [13]. The molecule further registered a kon in assay [14] of 29800 M⁻¹ s⁻¹. The t1/2 is 0.4 min in assay [6]; 8 min in assay [7]; 1.4 min in [9]; ≥ 1160 min in assay [10]; 3.1 min in assay [12]; 5 min in [14]. The t1/2 in [15] is ≥ 1160 min. In addition, the results for the “50 nM Ag Bound” value in assay [8] and in assay [13] were 8 RU and 11 RU, respectively.

B5: H4H12859P (antibody, human IgG4 S228P, kappa, V domains shown)
VH: QVQLVQSGAEVKKPGASVRVSCKASGYTFTDYDIHWVRQAPGHGLEWMGWINPNSGGTNYAQKFQGRVTMTRDTSISTVYMDLSRLRSDDTAVYYCARADYSSSYYYYGMDVWGQGTTVTVSS
VL: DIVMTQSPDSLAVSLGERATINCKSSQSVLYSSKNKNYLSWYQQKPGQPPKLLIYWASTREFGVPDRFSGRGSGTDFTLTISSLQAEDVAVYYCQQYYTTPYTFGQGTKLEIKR
notes: as for B1
With B5, the binding ratio in [16] turned out to be 1.

One may read the koff as a measure of how fast the partners let go of each other. The low end stands for slow dissociation, the high end for fast dissociation. The term Kd denotes the concentration at which binding is half-saturated. Low values mean a tighter complex, high ones a looser complex. Broadly, the kon is a measure of how fast the partners come together. Higher therefore signals fast association.

The values are drawn from patent US20200247894A1 (Regeneron, published 2020).
